Experimental findings from publication doi:10.1101/2023.02.23.529646 (bioRxiv, 2023) are described below.

Experiment [1] addresses T1, ACAD9WT (res. 38-621) (human, UniProt Q9H845 38-621).
T1 sequence: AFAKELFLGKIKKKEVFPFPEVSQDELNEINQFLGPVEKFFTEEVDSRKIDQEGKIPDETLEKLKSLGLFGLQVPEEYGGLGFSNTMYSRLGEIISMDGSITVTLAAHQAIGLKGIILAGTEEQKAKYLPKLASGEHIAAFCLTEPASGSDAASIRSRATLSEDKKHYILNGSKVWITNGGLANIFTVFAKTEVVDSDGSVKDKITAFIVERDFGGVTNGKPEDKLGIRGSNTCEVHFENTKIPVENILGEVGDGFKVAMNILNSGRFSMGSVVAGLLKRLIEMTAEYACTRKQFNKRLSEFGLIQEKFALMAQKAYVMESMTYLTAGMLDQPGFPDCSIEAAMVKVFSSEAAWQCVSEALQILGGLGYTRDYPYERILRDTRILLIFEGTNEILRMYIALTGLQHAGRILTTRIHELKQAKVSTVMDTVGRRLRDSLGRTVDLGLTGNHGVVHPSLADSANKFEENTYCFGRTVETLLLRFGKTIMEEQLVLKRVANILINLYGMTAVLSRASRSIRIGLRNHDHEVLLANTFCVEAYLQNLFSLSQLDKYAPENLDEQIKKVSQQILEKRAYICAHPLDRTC
Kind of experiment: mass photometry.

In experiment [2] the target is T2, ACAD9_(A184S/SR194TS) (human, UniProt Q9H845 38-621, A184S | SR194TS).
T2 sequence: T1 sequence with A147S, S157T, R158S
In words: mass photometry.

In experiment [3] the target is T3, VLCAD_(ACAD9) (human, UniProt P49748 72-655, 437MGGMGFM443 to 437LGGLGYT443).
T3 sequence: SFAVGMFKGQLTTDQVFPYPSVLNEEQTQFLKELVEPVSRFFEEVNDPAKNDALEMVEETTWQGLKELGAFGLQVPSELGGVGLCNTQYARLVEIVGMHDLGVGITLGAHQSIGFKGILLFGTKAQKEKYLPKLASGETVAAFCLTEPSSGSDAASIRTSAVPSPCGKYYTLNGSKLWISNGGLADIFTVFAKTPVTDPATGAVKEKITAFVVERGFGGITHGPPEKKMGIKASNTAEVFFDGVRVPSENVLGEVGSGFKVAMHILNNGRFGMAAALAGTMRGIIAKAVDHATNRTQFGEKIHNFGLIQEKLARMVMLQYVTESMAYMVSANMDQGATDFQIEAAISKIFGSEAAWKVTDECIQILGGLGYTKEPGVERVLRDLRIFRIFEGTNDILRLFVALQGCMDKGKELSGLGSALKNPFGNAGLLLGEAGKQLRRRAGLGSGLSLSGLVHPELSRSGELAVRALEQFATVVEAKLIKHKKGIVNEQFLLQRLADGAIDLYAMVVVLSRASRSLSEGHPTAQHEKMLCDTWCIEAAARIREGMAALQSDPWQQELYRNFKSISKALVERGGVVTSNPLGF
In words: mass photometry.

Experiment [4] deals with T4, ACAD9_(SR194TS) (human, UniProt Q9H845 38-621, SR194TS).
T4 sequence: T1 sequence with S157T, R158S
In words: dynamic light scattering.

Positions count from the first letter of the chain named.

B1: ECSIT_(CTER) (residues 221-431) (domain or fragment)
chain: QDPVELAMFGLRHMEPDLSARVTIYQVPLPKDSTGAADPPQPHIVGIQSPDQQAALARHNPARPVFVEGPFSLWLRNKCVYYHILRADLLPPEEREVEETPEEWNLYYPMQLDLEYVRSGWDNYEFDINEVEEGPVFAMCMAGAHDQATMAKWIQGLQETNPTLAQIPVVFRLAGSTRELQTSSAGLEEPPLPEDHQEEDDNLQRQQQGQS
Take B1: the “stoichiometry N” value in experiment [1] is 2 ECSIT_(CTER) monomers per ACAD9 dimer. In addition, the binding result in experiment [2], in experiment [3] and in experiment [4] was “binds” each time.
